Assay results taken from patent publication US11447754B2, “In vitro methods of chemical conversion using non-stereospecific glutathione lyases” (WISCONSIN ALUMNI RESEARCH FOUNDATION, priority 2017, dated 2022).

How the values were obtained:
Assay type in all cases: biochemical, Novosphingobium aromaticivorans
[1] = substrate: COc1cc(C(=O)[C@@H](CO)Oc2ccccc2OC)ccc1O; assay: Kinetics of the enzymatic cleavage of β(R)-MPHPV by LigE; settings: other: β(R)-MPHPV into GS-HPV, 70 nM enzyme (monomer), 5 mM GSH, pH 8.0, 25° C.
Description: Enzyme purifications. Genes Saro_2595, E. coli yghU, E. coli yfcG, and SLG_04120 from Sphingobium sp. SYK-6 (codon-optimized for expression in E. coli) were individually cloned into plasmid pVP302K (Gall and Ralph et al. 2014) so that transcripts from the plasmids would be translated into proteins containing a His8-tag connected to the N-terminus via a tobacco etch virus (TEV) protease recognition site. Recombinant proteins were expressed in E. coli B834 (Wood 1966, Doherty et al. 1995) containing plasmid pRARE2 (Novagen, Madison, Wis.) grown for ˜24 h at 27° C. in ZYM-5052 Autoinduction Medium (Studier 2005) containing kanamycin and chloramphenicol. Recombinant proteins were purified essentially as described previously (Gall and Kim et al. 2014); see below for modifications to the procedure. After removal of His8-tags using TEV protease, recombinant proteins retained a Ser-Ala-Ile-Ala-Gly-peptide on their N-termini, derived from the linker between the protein and the TEV protease recognition site. Recombinant LigE and LigF1 from N. aromaticivorans were purified as previously described (Gall and Ralph et al. 2014).
(§1) Kinetics of the enzymatic cleavage of β(R)-MPHPV. Various concentrations of racemic MPHPV (equal amounts of the β(S)- and β(R)-stereoisomers) were combined with 5 mM GSH in RB. At time zero, 100 μL of a given enzyme in RB+5 mM GSH was combined with 1000 μL of the racemic MPHPV/GSH sample at 25° C. (both samples were equilibrated to 25° C. before mixing). […] At specified time points, 200 μL of a reaction was removed and combined with 40 μL of 1 M HCl (Acros Organics) to stop the reaction before HPLC analysis to quantify GS-HPV formed. […]
(§2) HPLC analysis. Analysis and quantification of aromatic compounds were performed using an Ultra AQ C18 5 μm column (Restek) attached to a System Gold HPLC (Beckman Coulter) with running buffers and methods described in Example 1. The eluent was analyzed for light absorbance between 191 and 600 nm, and absorbances at 280 nm were used for quantification of aromatic metabolites by comparing peak areas to those of standards.

[2] = substrate: COc1cc(C(=O)[C@@H](CO)Oc2ccccc2OC)ccc1O; assay: Kinetics of the enzymatic cleavage of β(R)-MPHPV by BaeA; settings: other: β(R)-MPHPV into GS-HPV, 18 nM dimeric enzyme, 5 mM GSH, pH 8.0, 25° C.
Protocol: (§3) Expression and purification of recombinant enzymes. Recombinant proteins were expressed using the plasmids described above in E. coli B834 containing plasmid pRARE2 (Novagen) grown for ˜25 hours at 25° C. in ZYM-5052 Autoinduction Medium containing kanamycin and chloramphenicol. Recombinant proteins were purified using a Ni^2+-NTA column as described in Example 1 above, except using gravity-flow columns instead of an FPLC system. After removal of His8-tags using Tev protease, recombinant proteins retained a Ser-Ala-Ile-Ala-Gly-peptide on their N-termini, derived from the linker between the protein and the Tev protease recognition site. Recombinant LigF1 was purified as previously described (Gall and Ralph et al. 2014).
Kinetics of the enzymatic cleavage of β(R)-MPHPV. Various concentrations of racemic MPHPV (equal amounts of the β(S)- and β(R)-stereoisomers) were combined with 5 mM GSH in RB. At time zero, 100 μL of a given enzyme in RB+5 mM GSH was combined with 1000 μL of the racemic MPHPV/GSH sample at 25° C. (both samples were equilibrated to 25° C. before mixing). Final concentrations of β(R)-MPHPV in each reaction were 0.0045, 0.010, 0.017, 0.068, or 0.13 mM. Final enzyme concentrations were 18 nM BaeA, 23 nM BaeA (2:S14A), 22 nM BaeA (3:S15A), 24 nM BaeA (2:S14A/3:S15A), 98 nM BaeA (3N14A), or 70 nM LigE (Saro_2405) (all concentrations are for the dimeric enzyme, except for LigE, which is the concentration of the monomer). At specified time points, 200 μL of a reaction was removed and combined with 40 μL of 1 M HCl (Acros Organics) to stop the reaction before HPLC analysis to quantify GS-HPV formed. […]
as §2

[3] = substrate: COc1cc(C(=O)[C@@H](CO)Oc2ccccc2OC)ccc1O; assay: Kinetics of the enzymatic cleavage of β(R)-MPHPV by BaeA (2:S14A); settings: other: β(R)-MPHPV into GS-HPV, 23 nM dimeric enzyme, 5 mM GSH, pH 8.0, 25° C.
Description: (§4) To generate mutant 2:S14A, pVP302K/2873-H2872 was amplified by kinase phosphorylated primers “Saro2872-S14A_R” and “Saro2872-S14A_F”. To generate mutant 3:S15A, pVP302K/H2873-2872 was amplified by kinase phosphorylated primers “Saro2873-S15A_R” and “Saro2873-S15A_F”. To generate mutant 3:N14A, pVP302K/2873-H2872 was amplified by kinase phosphorylated primers “Saro2873-S15A_R” and “Saro2873-N14A_F”. These linear fragments were separately circularized using T4 DNA ligase to generate plasmids pVP302K/2873-H2872(S14A), pVP302K/H2873(S15A)-2872, and pVP302K/2873(N14A)-H2872, respectively.
as §3
as §1, with “RB.” for “RB. At time zero, 100 μL of a given enzyme in RB+5 mM GSH was combined with 1000 μL of the racemic MPHPV/GSH sample at 25° C. (both samples were equilibrated to 25° C. before mixing).”
as §2

[4] = substrate: COc1cc(C(=O)[C@@H](CO)Oc2ccccc2OC)ccc1O; assay: Kinetics of the enzymatic cleavage of β(R)-MPHPV by BaeA (3:S15A); settings: other: β(R)-MPHPV into GS-HPV, 22 nM dimeric enzyme, 5 mM GSH, pH 8.0, 25° C.
Description: as §4, §3
as §1, with “RB.” for “RB. At time zero, 100 μL of a given enzyme in RB+5 mM GSH was combined with 1000 μL of the racemic MPHPV/GSH sample at 25° C. (both samples were equilibrated to 25° C. before mixing).”
as §2

B1: Novosphingobium aromaticivorans LigE (Saro_2405), wild type (Novosphingobium aromaticivorans DSM 12444) (protein)
chain: MAANNTITFYDLALSTGATISPFVWATKYALKHKGFDLDVVPGGFTGILERTGGKTERLPAIVDDGEFVLDSWGIVEYLDAKYPDRPVLIPHESVAATLKALDNWFWNAAVGPWMFCFCQDYRDLSLPQDHEYVTHSREKMLGRKLEEVQAGREERLPKISAALEPLRAALAQHQWLGGSSPNYADYRIMGGILFTASVCKTPVLANDDPLRDWIERCLDLYGGLGRHPGLFPLFGLEQREGDPDLFNRAAGQGGIYKRNTGPESTRAETQRITEGMKK
notes: E. coli expressed
B1 showed a Km [1] of 7 ± 1 µM, a kcat [1] of 0.68 ± 0.06 s⁻¹ and a kcat/Km [1] of 100000 ± 20000 M⁻¹ s⁻¹.

B2: Novosphingobium aromaticivorans BaeA, wild type, heterodimer of Saro_2872 (SEQ ID NO:40) and Saro_2873 (SEQ ID NO:42) (Novosphingobium aromaticivorans DSM … (protein)
chain 1: MSALLYHGEPNGASLTVLAALAETGLDIECRRIDLLAGERHSLPGIVDPVALDLSIEGEGPVLVIDGEAMTESVFLAQYLDEAAGGVGLQPTDAYARWEMMMWCRQITERLSPAAALLGNLATSQSAIAAIPAEDFAILAARIVSDDLRERWQALNDDAVNAAQVADSETKVAAAVDRCEKQLGDGREWLMGTFSIADLVTYSWLAGMEPLRPAAFADAPLVKAWLARTAARPCVQAALARATISEPLRAWAPGPEINRWG
chain 2: MDEVSLYHWEPNANSGKPMLALMEKGVPFSSHYIDMLQFDQHKPEYLAINPQGTIPAMTHNGQVLTESTAIMEYVNDRFDGPDLMPADAQDRWRVRWWMKFMDQWLGPSFSMIGWSVFVGPMVRQRDPAELAAAIDRIPLPERRTAWRKAINGDFSESEMAESRRRVGLGIAKLEEELGKRPYVGSNQYSLADINIFNSTYSLPISQPDLAGKDRTPNIMRWLKRVYTREAVKKTWAMGKTDLAHRYGLIMAEIEG
notes: His8 tag removed by TEV, SAIAG left on the N-terminus
B2 showed a Km [2] of 20 ± 3 µM, a kcat [2] of 2.9 ± 0.3 s⁻¹ and a kcat/Km [2] of 150000 ± 30000 M⁻¹ s⁻¹.

B3: Novosphingobium aromaticivorans BaeA (Saro_2872/Saro_2873 heterodimer, SEQ ID NO:40/SEQ ID NO:42) variant 2:S14A (Ser14 of Saro_2872 to Ala) (Novosphingobium … (protein)
chain 1: MSALLYHGEPNGAALTVLAALAETGLDIECRRIDLLAGERHSLPGIVDPVALDLSIEGEGPVLVIDGEAMTESVFLAQYLDEAAGGVGLQPTDAYARWEMMMWCRQITERLSPAAALLGNLATSQSAIAAIPAEDFAILAARIVSDDLRERWQALNDDAVNAAQVADSETKVAAAVDRCEKQLGDGREWLMGTFSIADLVTYSWLAGMEPLRPAAFADAPLVKAWLARTAARPCVQAALARATISEPLRAWAPGPEINRWG
chain 2: MDEVSLYHWEPNANSGKPMLALMEKGVPFSSHYIDMLQFDQHKPEYLAINPQGTIPAMTHNGQVLTESTAIMEYVNDRFDGPDLMPADAQDRWRVRWWMKFMDQWLGPSFSMIGWSVFVGPMVRQRDPAELAAAIDRIPLPERRTAWRKAINGDFSESEMAESRRRVGLGIAKLEEELGKRPYVGSNQYSLADINIFNSTYSLPISQPDLAGKDRTPNIMRWLKRVYTREAVKKTWAMGKTDLAHRYGLIMAEIEG
notes: His8 tag on Saro_2872 removed by TEV, SAIAG left on N-terminus
Protein B3 has a Km [3] of 22 ± 3 µM, a kcat [3] of 2.8 ± 0.2 s⁻¹ and a kcat/Km [3] of 130000 ± 20000 M⁻¹ s⁻¹.

B4: Novosphingobium aromaticivorans BaeA (Saro_2872/Saro_2873 heterodimer, SEQ ID NO:40/SEQ ID NO:42) variant 3:S15A (Ser15 of Saro_2873 to Ala) (Novosphingobium … (protein)
chain 1: MSALLYHGEPNGASLTVLAALAETGLDIECRRIDLLAGERHSLPGIVDPVALDLSIEGEGPVLVIDGEAMTESVFLAQYLDEAAGGVGLQPTDAYARWEMMMWCRQITERLSPAAALLGNLATSQSAIAAIPAEDFAILAARIVSDDLRERWQALNDDAVNAAQVADSETKVAAAVDRCEKQLGDGREWLMGTFSIADLVTYSWLAGMEPLRPAAFADAPLVKAWLARTAARPCVQAALARATISEPLRAWAPGPEINRWG
chain 2: MDEVSLYHWEPNANAGKPMLALMEKGVPFSSHYIDMLQFDQHKPEYLAINPQGTIPAMTHNGQVLTESTAIMEYVNDRFDGPDLMPADAQDRWRVRWWMKFMDQWLGPSFSMIGWSVFVGPMVRQRDPAELAAAIDRIPLPERRTAWRKAINGDFSESEMAESRRRVGLGIAKLEEELGKRPYVGSNQYSLADINIFNSTYSLPISQPDLAGKDRTPNIMRWLKRVYTREAVKKTWAMGKTDLAHRYGLIMAEIEG
notes: His8 tag on Saro_2873 removed by TEV
For B4, the Km [4] was 100 ± 20 µM, the kcat [4] was 2.4 ± 0.3 s⁻¹ and the kcat/Km [4] was 23000 ± 6000 M⁻¹ s⁻¹.
